Here are results for one protein from FireProtDB (doi:10.1006/jmbi.2000.3958).

For the series the following is noted: Schizosaccharomyces pombe (strain 972 / ATCC 24843); pH 7.5; 25 °C; Urea; Fluorescence; Tris 50 mM; whole UniProt chain shown.

B1: Cyclin-dependent kinases regulatory subunit wild type, P08463 (protein)
chain: MSKSGVPRLLTASERERLEPFIDQIHYSPRYADDEYEYRHVMLPKAMLKAIPTDYFNPETGTLRILQEEEWRGLGITQSLGWEMYEVHVPEPHILLFKREKDYQMKFSQQRGG
On to B1, for which the denaturant m value worked out at 1.63 kcal/mol/M and the “denaturant midpoint (higher = more stable)” value amounted to 4.42 M.
